Patent publication US20050287648A1 (UNIVERSITY OF ROCHESTER, published 2005)

Target: APOBEC-1 (apolipoprotein B mRNA editing catalytic subunit 1) (Homo sapiens (Human), UniProt P41238 1-236)
Experiment: yeast two-hybrid (MatchMaker; his- selection and lacZ filter lift), negative control
From the text: The MatchMaker system includes specific protocols for setting up the yeast two hybrid selection, for verifying true His+, LacZ+ transformants and ruling out false positives. Both the selection scheme and verification of true positives follow the manufacturer's recommendations using cDNAs encoding APOBEC-and ACF (FIG. 9).

Sequence of APOBEC-1 (apolipoprotein B mRNA editing catalytic subunit 1) (P41238 whole entry M80I): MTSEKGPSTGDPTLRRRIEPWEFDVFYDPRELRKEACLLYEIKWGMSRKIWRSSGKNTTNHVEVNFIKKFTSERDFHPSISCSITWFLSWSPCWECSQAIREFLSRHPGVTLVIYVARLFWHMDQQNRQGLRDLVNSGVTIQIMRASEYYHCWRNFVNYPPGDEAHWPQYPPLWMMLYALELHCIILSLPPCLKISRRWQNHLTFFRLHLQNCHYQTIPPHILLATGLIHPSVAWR

B1: lamin C (other, UniProt P02545-2 66-230, looked up)
chain: SEEVVSREVSGIKAAYEAELGDARKTLDSVAKERARLQLELSKVREEFKELKARNTKKEGDLIAAQARLKDLEALLNSKEAALSTALSEKRTLEGELHDLRGQVAKLEAALGEAKKQLQDEMLRRVDAENRLQTMKEELDFQKNIYSEELRETKRRHETRLVEID
notes: Negative-control two-hybrid fusion
B1: no binding.
